The target of one assay is Gαi1. Description: cell-based or functional assay.
Another assay has as its target Gαq/i chimera. Description: cell-based or functional assay.

Where only a bound is given, the exact number is not on record here.

In the assay with Gαi1, human RGS4 (from UniProt P49798 1-205) registered an inhibition of SRE activation (SRE-luciferase reporter, all quinpirole concentrations, CHO-D2R cells) greater than 80% and a reduction in quinpirole-stimulated SRE activation (SRE-luciferase reporter, 100 nM quinpirole, CHO-D2R cells) of 85%. Further, in the assay with Gαq/i chimera, the reduction in SRE activation (SRE-luciferase reporter, CHO-D2R cells) was determined as 60%.

On to human RGSz1 (from UniProt O76081 1-388), for which, in the assay with Gαi1, the attenuation of SRE activation (SRE-luciferase reporter, CHO-D2R cells co-transfected with Gαi1) fell in the range of 25 to 30%.

The record behind these values is US20030119716A1, “Methods for screening, treating and diagnosing G-protein coupled receptor-related disorders and compositions thereof” (Wyeth, priority 2001, published 2003).
